Laboratory results as given in the supplement of paper PMC11136658.

Tested on: peptide library, one residue held at a place counted from the Y acceptor
Test: relative phosphorylation of the sub-library (ratio to the mean residue at this position); higher = residue favoured
How it was run: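 In 384-well plates, purified recombinant kinases were incubated for 90 min with 50 μM ATP containing γ-32P-ATP and biotinylated Tyr-centred peptide libraries, each mixture fixing one residue at a single position between −5 and +5. After capture on streptavidin membranes and rinsing, peptides were quantified by phosphorimaging with ImageQuant. Per-position intensities were scaled to the sum of the 18 (Ser/Thr-free library: 16) randomized residues, then multiplied by that number.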

Sequence of TNK1, construct: aa106-390, human (Q13470 106-390, looked up): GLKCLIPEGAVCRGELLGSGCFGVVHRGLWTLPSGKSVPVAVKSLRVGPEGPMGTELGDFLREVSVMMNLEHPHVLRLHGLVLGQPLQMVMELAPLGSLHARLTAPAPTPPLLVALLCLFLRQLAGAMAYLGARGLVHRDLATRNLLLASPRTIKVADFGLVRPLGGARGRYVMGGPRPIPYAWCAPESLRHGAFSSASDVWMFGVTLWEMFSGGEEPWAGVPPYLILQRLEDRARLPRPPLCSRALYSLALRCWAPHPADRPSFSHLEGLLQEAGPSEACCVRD

TNK1, construct: aa106-390, human (from UniProt Q13470)
relative phosphorylation
Conditions | at +1 | at +2 | at +3 | at +4 | at +5 | at -1 | at -2 | at -3 | at -4 | at -5
A fixed | 1.56 | 0.82 | 0.743 | 0.902 | 0.977 | 0.86 | 1.01 | 0.962 | 1.07 | 1.08
D fixed | 0.25 | 0.328 | 0.335 | 0.714 | 0.594 | 0.276 | 0.529 | 0.641 | 0.78 | 0.845
E fixed | 0.386 | 0.471 | 0.268 | 0.706 | 0.558 | 0.277 | 0.576 | 0.606 | 0.8 | 0.737
F fixed | 1.09 | 1.28 | 1.87 | 1.25 | 1.1 | 1.01 | 0.762 | 0.95 | 0.886 | 0.885
G fixed | 0.859 | 0.527 | 0.82 | 0.965 | 1.11 | 0.924 | 1.39 | 1.26 | 1.32 | 1.24
H fixed | 1.12 | 0.884 | 1.24 | 1.1 | 0.947 | 1.64 | 1.14 | 1.09 | 1.01 | 1.1
I fixed | 1.05 | 1.43 | 1.27 | 0.73 | 0.857 | 0.809 | 0.627 | 0.571 | 0.807 | 0.849
K fixed | 1.2 | 1.09 | 0.728 | 1.25 | 1.23 | 1.59 | 1.41 | 1.43 | 1.29 | 1.37
L fixed | 1 | 1.23 | 1.21 | 0.892 | 0.997 | 0.825 | 0.678 | 0.784 | 0.963 | 0.904
M fixed | 1.05 | 1.36 | 1.16 | 1.11 | 1.13 | 0.927 | 0.681 | 0.84 | 0.941 | 0.934
N fixed | 0.602 | 0.876 | 0.627 | 0.959 | 0.978 | 0.898 | 1.22 | 1.1 | 0.936 | 1.03
P fixed | 0.544 | 0.843 | 0.976 | 1.15 | 1.53 | 1.18 | 1.36 | 1.33 | 1.44 | 1.26
Q fixed | 1.08 | 0.825 | 0.573 | 1.1 | 0.864 | 1.09 | 1.07 | 0.982 | 1.02 | 1.04
R fixed | 1.45 | 1.27 | 0.987 | 1.28 | 1.17 | 2.56 | 1.8 | 1.6 | 1.44 | 1.26
S fixed | 0.936 | 0.787 | 0.661 | 0.901 | 0.982 | 0.779 | 1.23 | 1.15 | 0.863 | 0.999
T fixed | 1.03 | 1.07 | 0.665 | 0.891 | 1.01 | 0.895 | 1.01 | 1.06 | 0.765 | 0.912
V fixed | 1.18 | 1.4 | 1.19 | 0.846 | 0.878 | 0.733 | 0.748 | 0.702 | 0.828 | 0.832
W fixed | 1.6 | 1.51 | 2.69 | 1.26 | 1.1 | 0.723 | 0.749 | 0.947 | 0.845 | 0.718
pThr fixed | 0.344 | 0.38 | 0.211 | 0.367 | 0.429 | 0.291 | 0.492 | 0.539 | 0.593 | 0.738
pTyr fixed | 0.725 | 0.413 | 0.326 | 0.454 | 0.485 | 0.538 | 0.594 | 0.733 | 0.791 | 0.812
